In IntAct's records for PubMed 21212461:

B1: NAD-dependent protein deacetylase sirtuin-3, mitochondrial (Homo sapiens), Q9NTG7 (parent)
chain: MAFWGWRAAAALRLWGRVVERVEAGGGVGPFQACGCRLVLGGRDDVSAGLRGSHGARGEPLDPARPLQRPPRPEVPRAFRRQPRAAAPSFFFSSIKGGRRSISFSVGASSVVGSGGSSDKGKLSLQDVAELIRARACQRVVVMVGAGISTPSGIPDFRSPGSGLYSNLQQYDLPYPEAIFELPFFFHNPKPFFTLAKELYPGNYKPNVTHYFLRLLHDKGLLLRLYTQNIDGLERVSGIPASKLVEAHGTFASATCTVCQRPFPGEDIRADVMADRVPRCPVCTGVVKPDIVFFGEPLPQRFLLHVVDFPMADLLLILGTSLEVEPFASLTEAVRSSVPRLLINRDLVGPLAWHPRSRDVAQLGDVVHGVESLVELLGWTEEMRDLVQRETGKLDGPDK

Variants of: B1
Details: with ppif_mouse Ppif

| effect of a mutation on the interaction | Variant |
| --- | --- |
| disrupting interaction | H248Y |
